Literature values, collected in PMC10502159.

Tests used:
[1] = biological target: TLR4 1-631 (Homo sapiens) (UniProt O00206); test: SPR
[2] = biological target: TLR4 (Homo sapiens) (UniProt O00206); test: OpenSPR
[3] = biological target: EGFR ECD (Homo sapiens) (UniProt P00533); test: SPR (OpenSPR)
[4] = biological target: EGFR ECD (Homo sapiens) (UniProt P00533); test: SPR (Biacore)
[5] = biological target: pCTS-L (procathepsin L) (Homo sapiens) (UniProt P07711); test: OpenSPR
Sequence of pCTS-L (procathepsin L) (Homo sapiens) (P07711 18-333): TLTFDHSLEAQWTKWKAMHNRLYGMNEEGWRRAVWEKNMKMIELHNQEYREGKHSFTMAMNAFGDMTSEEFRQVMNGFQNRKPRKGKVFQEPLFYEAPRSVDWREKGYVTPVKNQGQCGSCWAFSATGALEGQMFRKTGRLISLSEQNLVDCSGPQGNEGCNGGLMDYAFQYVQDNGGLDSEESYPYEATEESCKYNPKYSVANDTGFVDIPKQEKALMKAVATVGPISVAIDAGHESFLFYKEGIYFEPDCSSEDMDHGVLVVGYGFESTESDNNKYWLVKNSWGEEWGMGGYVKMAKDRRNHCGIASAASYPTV

Sequence of dermcidin (P81605 20-110): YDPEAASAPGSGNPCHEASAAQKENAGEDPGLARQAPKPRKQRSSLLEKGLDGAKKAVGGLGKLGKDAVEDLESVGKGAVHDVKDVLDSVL
Sequence of TLR4 1-631 (Homo sapiens) (O00206 1-631): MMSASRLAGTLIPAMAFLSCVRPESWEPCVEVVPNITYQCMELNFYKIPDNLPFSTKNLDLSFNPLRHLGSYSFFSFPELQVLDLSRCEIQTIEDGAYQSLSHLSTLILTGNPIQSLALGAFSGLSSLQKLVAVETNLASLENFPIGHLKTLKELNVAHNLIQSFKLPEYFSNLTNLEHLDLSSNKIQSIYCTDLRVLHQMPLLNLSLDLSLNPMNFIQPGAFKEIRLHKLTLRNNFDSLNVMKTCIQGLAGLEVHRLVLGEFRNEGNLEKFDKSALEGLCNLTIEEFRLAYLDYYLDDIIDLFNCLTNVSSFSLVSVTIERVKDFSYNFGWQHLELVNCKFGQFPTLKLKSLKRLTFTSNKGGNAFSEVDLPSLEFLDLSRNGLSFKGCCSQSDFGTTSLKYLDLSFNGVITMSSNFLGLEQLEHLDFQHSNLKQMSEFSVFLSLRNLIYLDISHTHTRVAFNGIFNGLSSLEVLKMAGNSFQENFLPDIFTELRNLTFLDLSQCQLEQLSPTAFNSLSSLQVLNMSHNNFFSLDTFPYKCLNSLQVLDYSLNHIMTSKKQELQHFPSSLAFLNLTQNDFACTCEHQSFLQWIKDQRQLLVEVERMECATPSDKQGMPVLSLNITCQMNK
Sequence of pCTS-L (procathepsin L) (P07711 18-333): as the sequence (P07711 18-333) above
Sequence of TLR4 (Homo sapiens) (O00206 24-631): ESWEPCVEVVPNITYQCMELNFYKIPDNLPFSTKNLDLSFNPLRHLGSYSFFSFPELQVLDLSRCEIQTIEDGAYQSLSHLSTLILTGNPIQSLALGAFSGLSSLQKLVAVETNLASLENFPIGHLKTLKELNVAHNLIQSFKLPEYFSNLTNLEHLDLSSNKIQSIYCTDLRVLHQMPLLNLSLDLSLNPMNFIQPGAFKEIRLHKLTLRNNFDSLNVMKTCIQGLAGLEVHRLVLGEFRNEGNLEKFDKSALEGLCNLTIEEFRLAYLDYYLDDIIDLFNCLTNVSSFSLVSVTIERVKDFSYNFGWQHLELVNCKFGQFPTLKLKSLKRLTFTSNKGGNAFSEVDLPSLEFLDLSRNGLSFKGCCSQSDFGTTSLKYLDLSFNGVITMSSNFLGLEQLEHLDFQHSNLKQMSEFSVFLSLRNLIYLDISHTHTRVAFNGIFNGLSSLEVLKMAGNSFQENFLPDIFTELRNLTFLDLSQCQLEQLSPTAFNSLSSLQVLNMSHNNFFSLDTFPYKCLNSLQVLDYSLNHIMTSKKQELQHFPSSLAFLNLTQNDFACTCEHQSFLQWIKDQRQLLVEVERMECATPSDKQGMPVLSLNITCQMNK
Sequence of TLR4 (O00206 24-631): as above
Sequence of procathepsin L (pCTS-L) 17-333 (P07711 17-333): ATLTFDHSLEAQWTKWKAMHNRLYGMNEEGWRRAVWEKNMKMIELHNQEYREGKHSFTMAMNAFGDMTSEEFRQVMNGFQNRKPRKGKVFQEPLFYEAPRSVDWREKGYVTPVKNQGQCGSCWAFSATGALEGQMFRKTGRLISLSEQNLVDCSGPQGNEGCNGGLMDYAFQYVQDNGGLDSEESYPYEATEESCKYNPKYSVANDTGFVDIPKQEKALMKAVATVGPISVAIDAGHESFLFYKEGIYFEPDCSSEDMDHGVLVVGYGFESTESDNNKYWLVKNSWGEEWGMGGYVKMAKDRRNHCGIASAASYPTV

## procathepsin L (pCTS-L) 17-333 (from UniProt P07711)
[1]
  Kd: 64.6 nM

## pCTS-L (procathepsin L) (from UniProt P07711)
[2]
  Kd: 20.2 nM

## dermcidin (from UniProt P81605)
[3]
  Kd: 58.1 nM
[4]
  Kd: 58.8 nM

## TLR4 (from UniProt O00206)
[5]
  Kd: 64.6 nM
